Measured values reported in patent publication US20180346555A1 (Regeneron, published 2018).

Experiments:
natural Bet v 1 [1] = target: T1, natural Bet v 1 (Betula verrucosa (Betula pendula), UniProt P15494 2-160); assay: SPR Biacore 4000, mAb captured on anti-human Fc, 25C;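 further: purified anti-Bet v 1 mAbs probed with natural Bet v 1 in HBS-ET buffer (HEPES, NaCl, EDTA, Tween-20) at pH 7.4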
T1 construct: Bought natural protein; also called nBet v 1
T1 chain: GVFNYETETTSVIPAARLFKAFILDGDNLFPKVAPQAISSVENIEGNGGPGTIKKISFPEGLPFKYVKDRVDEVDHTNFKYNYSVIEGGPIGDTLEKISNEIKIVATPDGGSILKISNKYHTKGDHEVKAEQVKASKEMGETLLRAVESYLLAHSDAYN

natural Bet v 1 [2] = target: T1, natural Bet v 1; assay: SPR Biacore 4000, mAb captured on anti-human Fc, 37C;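 further: kinetic rate constants from SPR sensorgrams fitted to a 1:1 model with mass transport limitation, HBS-ET buffer pH 7.4, KD and t½ derived from the rate constants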
Method: Equilibrium dissociation constants (KD) for natural Bet v 1 binding to purified anti-Bet v 1 monoclonal antibodies were determined using a real-time surface plasmon resonance biosensor (SPR-Biacore) on a Biacore 4000 instrument. All binding studies were performed in 10 mM HEPES, 150 mM NaCl, 3 mM EDTA, and 0.05% v/v surfactant Tween-20, pH 7.4 (HBS-ET) running buffer at 25° C. and 37° C. […] Association (kₐ) and dissociation (kd) rate constants were determined by fitting the real-time binding sensorgrams to a 1:1 binding model with mass transport limitation using Scrubber 2.0c curve-fitting software. Binding dissociation equilibrium constants (KD) and dissociative half-lives (t½) were calculated from the kinetic rate constants as:

B1: H4H16943P (antibody, human IgG4, V domains shown)
VH: EVQLVESGGGLVQPGGSLRLSCTASGFMSSMYWMSWVRQAPGKGLEWVSNIKQDGTEKNYVESVKGRFTISRDNAKNSLYLQINSLRGEDTAVYYCARDLYSSSSGYYYYGLDVWGQGTTVTVSS
VL: DIVMTQSPLSLPVTPGEPASISCRSSQSLLHSNKYNYLDWYLQKPGQSPQLLIYLSSNRASGVPDRFSGSGSGTEFTLKISRVEAEDVGIYYCMQALHTPLTFGGGTKVEIK
notes: Fully human antibody
100 nM natural Bet v 1 Bound (RU) (natural Bet v 1 [1]): 71 RU | Kd (natural Bet v 1 [1]): 1.4 nM | koff (natural Bet v 1 [1]): 0.00023 s⁻¹ | kon (natural Bet v 1 [1]): 164000 M⁻¹ s⁻¹ | t½ (natural Bet v 1 [1]): 50 min | 100 nM natural Bet v 1 Bound (RU) (natural Bet v 1 [2]): 88 RU | Kd (natural Bet v 1 [2]): 4.89 nM | koff (natural Bet v 1 [2]): 0.00127 s⁻¹ | kon (natural Bet v 1 [2]): 260000 M⁻¹ s⁻¹ | t½ (natural Bet v 1 [2]): 9.1 min

B2: H4H16946P (antibody, human IgG4, V domains shown)
VH: EVQLVESGGGLVQPGGSLRLSCVASGFTFSNYDMNWVRQAPGEGLEWISYISYSDHNIYYIDSVKGRFTISRDNAKNSLYLQMNSLRAEDTAIYYCAREALASSSFDYWGQGTLVTVSS
VL: EIVMTQSPATLSVSPGERVTLSCRASQSVSGNLAWYQQKPGQAPRLLIYSASTGATGVPARFSGSGSGTEFTLTISSLQSEDFALYYCQQYNKWPRTIGQGTKVEIK
100 nM natural Bet v 1 Bound (RU) (natural Bet v 1 [1]): 74 RU | Kd (natural Bet v 1 [1]): 0.982 nM | koff (natural Bet v 1 [1]): 0.000201 s⁻¹ | kon (natural Bet v 1 [1]): 205000 M⁻¹ s⁻¹ | t½ (natural Bet v 1 [1]): 58 min | 100 nM natural Bet v 1 Bound (RU) (natural Bet v 1 [2]): 93 RU | Kd (natural Bet v 1 [2]): 2.08 nM | koff (natural Bet v 1 [2]): 0.000601 s⁻¹ | kon (natural Bet v 1 [2]): 289000 M⁻¹ s⁻¹ | t½ (natural Bet v 1 [2]): 19 min

B3: H4H16950P (antibody, human IgG4, V domains shown)
VH: QVQLVQSGAEVKKPGASVKVSCKTSGYTFTNYGITWVRQAPGQGLEWMGWISAYNGNTNYAQNVQGRVTMTTDTSTSTAYMEVRSLRSDDTAVYYCARRSSMLHFQHWGQGTLVTVSS
VL: DIVMTQSPDSLAVSLGERATINCKSSQHVLYDSSNENYLAWFQQKPGQPPKLLIYWASTRESGVPDRFSGSGSGTDFTLTISSLQAEDVAVYYCQQYSSAPYTFGQGTKLEIK
100 nM natural Bet v 1 Bound (RU) (natural Bet v 1 [1]): 58 RU | Kd (natural Bet v 1 [1]): 5.23 nM | koff (natural Bet v 1 [1]): 0.000503 s⁻¹ | kon (natural Bet v 1 [1]): 96100 M⁻¹ s⁻¹ | t½ (natural Bet v 1 [1]): 23 min | 100 nM natural Bet v 1 Bound (RU) (natural Bet v 1 [2]): 76 RU | Kd (natural Bet v 1 [2]): 8.57 nM | koff (natural Bet v 1 [2]): 0.00121 s⁻¹ | kon (natural Bet v 1 [2]): 141000 M⁻¹ s⁻¹ | t½ (natural Bet v 1 [2]): 10 min

B4: H4H16960P (antibody, human IgG4, V domains shown)
VH: QLQLQESGPGLVRPSETLSLTCTVSGGSISSSNYWWGWIRQPPGKGLEWIGSIYYSGITYYNPSLKSRVTISADTSKDQFSLKLRSVTAADTAVYYCAKLEWLRLDFWGQGTTVTVSS
VL: DIQMTQSPSSVSASVGDRVTITCRASQGISSWLVWYQQKPGKVPKLLIYAASSLQSGVPLRFSGSGSGTDFTLTISSLQPEDFATYYCQQAKSFPLTFGQGTRLEIK
100 nM natural Bet v 1 Bound (RU) (natural Bet v 1 [1]): 57 RU | Kd (natural Bet v 1 [1]): 1.64 nM | koff (natural Bet v 1 [1]): 0.00069 s⁻¹ | kon (natural Bet v 1 [1]): 422000 M⁻¹ s⁻¹ | t½ (natural Bet v 1 [1]): 17 min | 100 nM natural Bet v 1 Bound (RU) (natural Bet v 1 [2]): 65 RU | Kd (natural Bet v 1 [2]): 2.54 nM | koff (natural Bet v 1 [2]): 0.00168 s⁻¹ | kon (natural Bet v 1 [2]): 662000 M⁻¹ s⁻¹ | t½ (natural Bet v 1 [2]): 6.8 min

B5: H4H16967P (antibody, human IgG4, V domains shown)
VH: QVQLVESGGGVVQPGRSLRLSCAASGFTFSSYGMHWFRQAPGKGLEWVGVIWSDGSDKKYADSVKGRFTISRDNSKNTLYLLMNSLRDDDTAVYHCAREGGFLYSSSSHFDYWGQGTLVTVSS
VL: AIQMTQSPSSLSASVGDRVTITCRTSQGIRNDLGWYQQKPGKAPKLLIFAASSLQSGVPSRFSGSGSGTDFTLTISSLQPEDFAIYYCLQDYKYPFTFGGGTKVEIK
100 nM natural Bet v 1 Bound (RU) (natural Bet v 1 [1]): 27 RU | Kd (natural Bet v 1 [1]): 3.98 nM | koff (natural Bet v 1 [1]): 0.000149 s⁻¹ | kon (natural Bet v 1 [1]): 37600 M⁻¹ s⁻¹ | t½ (natural Bet v 1 [1]): 77 min | 100 nM natural Bet v 1 Bound (RU) (natural Bet v 1 [2]): 45 RU | Kd (natural Bet v 1 [2]): 14.3 nM | koff (natural Bet v 1 [2]): 0.000719 s⁻¹ | kon (natural Bet v 1 [2]): 50400 M⁻¹ s⁻¹ | t½ (natural Bet v 1 [2]): 16 min

B6: H4H16971P (antibody, human IgG4, V domains shown)
VH: QVQLVESGGGVVQPGRSLRLSCAASGFTFSSYGLHWVRQAPGKGLEWVAVISDDGSYKFYADSMKGRFTISRDNSKNTLYLQMNSLRAEDTAVYYCAKDRGRSGWYYFDYWGQGTLVTVSS
VL: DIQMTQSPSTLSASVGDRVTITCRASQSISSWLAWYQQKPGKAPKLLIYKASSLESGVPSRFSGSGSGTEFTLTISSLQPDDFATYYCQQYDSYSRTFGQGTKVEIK
100 nM natural Bet v 1 Bound (RU) (natural Bet v 1 [1]): 57 RU | Kd (natural Bet v 1 [1]): 3.26 nM | koff (natural Bet v 1 [1]): 0.000781 s⁻¹ | kon (natural Bet v 1 [1]): 240000 M⁻¹ s⁻¹ | t½ (natural Bet v 1 [1]): 15 min | 100 nM natural Bet v 1 Bound (RU) (natural Bet v 1 [2]): 66 RU | Kd (natural Bet v 1 [2]): 6.93 nM | koff (natural Bet v 1 [2]): 0.00244 s⁻¹ | kon (natural Bet v 1 [2]): 352000 M⁻¹ s⁻¹ | t½ (natural Bet v 1 [2]): 4.7 min

B7: H4H16979P (antibody, human IgG4, V domains shown)
VH: QVQLVQSGAEVKKPGASVKVSCKASGYTFIAYYLHWVRQAPGQGLEWMGLLNPYTGGSYYTQKFQGRVTMTRDTSIDTAYMELNSLRSDDTAIYYCARDKRSYYIPYAFEIWGQGTMVTVSS
VL: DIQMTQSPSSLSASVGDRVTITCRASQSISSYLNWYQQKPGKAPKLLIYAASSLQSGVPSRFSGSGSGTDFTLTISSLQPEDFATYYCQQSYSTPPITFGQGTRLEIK
100 nM natural Bet v 1 Bound (RU) (natural Bet v 1 [1]): 41 RU | Kd (natural Bet v 1 [1]): 1.21 nM | koff (natural Bet v 1 [1]): 0.000278 s⁻¹ | kon (natural Bet v 1 [1]): 230000 M⁻¹ s⁻¹ | t½ (natural Bet v 1 [1]): 42 min | 100 nM natural Bet v 1 Bound (RU) (natural Bet v 1 [2]): 52 RU | Kd (natural Bet v 1 [2]): 1.8 nM | koff (natural Bet v 1 [2]): 0.000616 s⁻¹ | kon (natural Bet v 1 [2]): 342000 M⁻¹ s⁻¹ | t½ (natural Bet v 1 [2]): 19 min

B8: H4H16987P (antibody, human IgG4 S228P, kappa, V domains shown)
VH: EVQLVESGGGLVQPGGSLRLSCAASGFTVSSNSMSWVRQAPGEGLEWVSVIFSGGITYYSDSVKGRFTISRHNSKNTLYLQMNSLRTEDTAVYYCARHSNWNFDAFDIWGQGTMVTVSS
VL: DIQMTQSPSSLSASVGDRVTITCRASQSFDTYLNWYQQKPGKAPNLLIYATSSLQSGVPSRFSGSGSGTDFTLTISSLQPEDFGTYYCQQSYSIPYTFGQGTKLEIKR
notes: Human IgG4; also called MAB4
100 nM natural Bet v 1 Bound (RU) (natural Bet v 1 [1]): 61 RU | Kd (natural Bet v 1 [1]): 2.77 nM | koff (natural Bet v 1 [1]): 0.00114 s⁻¹ | kon (natural Bet v 1 [1]): 410000 M⁻¹ s⁻¹ | t½ (natural Bet v 1 [1]): 10 min | 100 nM natural Bet v 1 Bound (RU) (natural Bet v 1 [2]): 74 RU | Kd (natural Bet v 1 [2]): 9.16 nM | koff (natural Bet v 1 [2]): 0.00477 s⁻¹ | kon (natural Bet v 1 [2]): 520000 M⁻¹ s⁻¹ | t½ (natural Bet v 1 [2]): 2.4 min

B9: H4H16991P (antibody, human IgG4, V domains shown)
VH: QVQLVQSGAEVRKPGASVKVSCKASGYTFTGYYLHWVRQAPGQGLEWMGLINPNTGGTNFAQKFQGRVTMTRDSSISAAYMELSRLRSDDTAVYYCARQHWNRYFDNWGQGTLVTVSS
VL: DIQMTQSPSTLSASVGDRVTITCRASQSVGNWLAWYQQKPGKAPKLLIQEASSIESGVPSRFSGSGSGTEFTLIVSSLQPDDFATYYCQQYNSYSWTFGHGTKVEIK
100 nM natural Bet v 1 Bound (RU) (natural Bet v 1 [1]): 57 RU | Kd (natural Bet v 1 [1]): 1.06 nM | koff (natural Bet v 1 [1]): 0.000312 s⁻¹ | kon (natural Bet v 1 [1]): 295000 M⁻¹ s⁻¹ | t½ (natural Bet v 1 [1]): 37 min | 100 nM natural Bet v 1 Bound (RU) (natural Bet v 1 [2]): 66 RU | Kd (natural Bet v 1 [2]): 2.16 nM | koff (natural Bet v 1 [2]): 0.00108 s⁻¹ | kon (natural Bet v 1 [2]): 500000 M⁻¹ s⁻¹ | t½ (natural Bet v 1 [2]): 11 min

B10: H4H17001P (antibody, human IgG4, V domains shown)
VH: QVQLVESGGGLVKPGGSLRLSCAASGFTFSDYYMNWIRQAPGKGLEWISLISSSGSAIYYSDSVKGRFTISRDNARKSLYLQVNSLRAEDTAVYYCARDRGEWALGAYYYGLDVWGQGTTVTVSS
VL: DIVMTQSPLSLPVTPGEPASISCRSSQSLLHSDGYNYLDWYLQKSGQSPQLLIYLGSNRASGVPDRFSGSGSGTDFTLKISRMEAEDVGVYYCMQALQTPYTFGQGTKLEIK
100 nM natural Bet v 1 Bound (RU) (natural Bet v 1 [1]): 71 RU | Kd (natural Bet v 1 [1]): 1 nM | koff (natural Bet v 1 [1]): 0.000329 s⁻¹ | kon (natural Bet v 1 [1]): 329000 M⁻¹ s⁻¹ | t½ (natural Bet v 1 [1]): 35 min | 100 nM natural Bet v 1 Bound (RU) (natural Bet v 1 [2]): 87 RU | Kd (natural Bet v 1 [2]): 2.52 nM | koff (natural Bet v 1 [2]): 0.00122 s⁻¹ | kon (natural Bet v 1 [2]): 485000 M⁻¹ s⁻¹ | t½ (natural Bet v 1 [2]): 9.5 min

B11: H4H17015P (antibody, human IgG4, V domains shown)
VH: QVQLQESGPGLVKPSQTLSLTCTVSGGSISSADHYWSWIRQQPGKGLEWIGYISYRGTTYYNPTLESRVSISVDTFKNQFSLMLHSVTVADTAVYYCAKVLQGLVRFRDYGFDVWGQGTTVTVSS
VL: DIQLTQSPPFLSASVGDRVTITCWASQDISSYLAWYQQNPGKSPKLLIYDAFTLHTGVPSRFSGSGSGTEFTLTISSLQPEDFATFYCQHLYSFPFTFGPGTKVDIK
100 nM natural Bet v 1 Bound (RU) (natural Bet v 1 [1]): 68 RU | Kd (natural Bet v 1 [1]): 1.34 nM | koff (natural Bet v 1 [1]): 0.000246 s⁻¹ | kon (natural Bet v 1 [1]): 184000 M⁻¹ s⁻¹ | t½ (natural Bet v 1 [1]): 47 min | 100 nM natural Bet v 1 Bound (RU) (natural Bet v 1 [2]): 84 RU | Kd (natural Bet v 1 [2]): 2.7 nM | koff (natural Bet v 1 [2]): 0.000792 s⁻¹ | kon (natural Bet v 1 [2]): 293000 M⁻¹ s⁻¹ | t½ (natural Bet v 1 [2]): 15 min
